# Data as given in US20230312651A1, “Cyclic Peptide, Peptide Complex, and Drug Composition Containing Said Cyclic Peptide and/or Said Peptide Complex” (The University of Tokyo, priority 2020, published 2023).
# “Also recorded” adds a separate entry of the source. Starred links: 1 amine or outer side, 2 acyl side, 3 side chain; linkers in the order of their positions; H or OH if unused. Positions of bridges follow the written chain, without caps; N, C: chain ends. Non-standard residues stand in square brackets, D forms with d. Chains are numbered I, II in the order given. No end group written: not given here. NH(CH2CH2O)6CH2CO = O=C(COCCOCCOCCOCCOCCOCCN[*:1])[*:2]; Dap = NC[C@H](N)C(=O)O
# Biological target: T1, extracellular domain of hTrkC (Homo sapiens, UniProt Q16288)
# T1 construct: the extracellular domain of hTrkA, hTrkC, and hTrkB
# Assay: SPR binding kinetics (Biacore T200), hTrkC
# Settings: Homodimer (peptide complex), 1:1 binding model
# Description: (§1) With respect to the binding kinetics (binding affinity (dissociation constant) KD) of the cyclic peptides towards the extracellular domain of hTrkA, hTrkC, and hTrkB (which will hereinafter be called “hTrkA-C proteins”, collectively) immobilized on a sensor chip via a His6-tag, quantitative measurements making use of surface plasmon resonance (SPR) were carried out to evaluate the binding intensity and selectivity of the cyclic peptide to hTrkB, compared with that to hTrkA and hTrkC.
# (§2) The binding kinetics of each peptide towards the hTrkA-C proteins were determined using Biacore T200 (GE Healthcare). The buffer used was HBS-P+ (10 mM HEPES, 150 mM NaCl, and 0.05 vol% surfactant P20, pH 7.4) containing 0.1 vol% DMSO and 1 mM b-dodecyl-maltoside. 100 nM hTrkA-C proteins were immobilized on a Ni^2+ treated NTA chip in accordance with the manufacturer’s instructions (baseline response 1000 to 3000 refraction units). Peptides were injected as an analyte at a flow rate of […] and binding kinetics was modelled using a 1:1 binding model.
# T1 sequence (Q16288 32-429 limits assumed): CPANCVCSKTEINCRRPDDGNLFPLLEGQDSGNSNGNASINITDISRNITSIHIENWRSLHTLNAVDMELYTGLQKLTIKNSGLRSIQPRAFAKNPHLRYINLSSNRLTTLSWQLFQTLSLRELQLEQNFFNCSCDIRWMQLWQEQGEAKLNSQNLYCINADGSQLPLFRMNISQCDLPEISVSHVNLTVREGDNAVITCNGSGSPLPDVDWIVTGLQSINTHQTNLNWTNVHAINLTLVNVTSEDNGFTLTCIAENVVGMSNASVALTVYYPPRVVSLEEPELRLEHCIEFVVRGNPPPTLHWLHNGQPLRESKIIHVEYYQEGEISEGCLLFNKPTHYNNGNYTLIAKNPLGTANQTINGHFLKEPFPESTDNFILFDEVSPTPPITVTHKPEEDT
row,Molecule,"binding affinity KD, TrkC"
1,"I: {CH2CO}-YRHNSYEASAFWCGSGSGS[NH(CH2CH2O)6CH2CO][Dap]-NH2 / II: {CH2CO}-YRHNSYEASAFWCGSGSGS[NH(CH2CH2O)6CH2CO] (amide I:21-II:C; thioether I:N-I:13, II:N-II:13) [DiTrbL1]",N.B.

# Test system: Akt
# Assay: Western blot of phosphorylated Akt (S473) in primary hippocampal neurons
# Format: cell-based, mouse
# Settings: ANA-12 100 µM added 30 minutes before 1 nM DiTrbL3; p<0.05
# Description: (§3) After washing with 0.1 M PBS twice, cells were lysed in a radio-immunoprecipitation assay (RIPA) buffer containing 50 mM Tris-HCI (pH 7.4), 150 mM NaCl, 2 mM EDTA, 1% Nonidet P-40, 0.5% Na-deoxycholate, 0.1% SDS, 50 mM NaF, 0.2 mM Na3VO4, 10 µg/mL aprotinin, 10 µg/mL leupeptin, and 1 mM phenylmethylsulfonyl fluoride on ice for 30 minutes. After ultrasonic treatment and centrifugation at 20,000 ×g for 30 minutes, the supernatant was subjected to SDS-PAGE. Protein amount was quantified using Bicinchoninic Acid Kit (BCA-1, Sigma).
# (§4) The cell lysate (protein amount: 20 µg in P-TrkB, 10 µg in TrkB, and 5 µg in Akt and Erk) was separated using 8% polyacrylamide gel and transferred to a polyvinylidene difluoride membrane (Merck Millipore, Massachusetts, USA). […]
# (§5) Finally, after the resulting membrane was washed with TBST, an immune-positive bands were detected by a chemiluminescence method using a Luminata Crescendo HPR substrate (Merck Millipore). The relative phosphorylation level of each kinase was calculated as a ratio of phosphorylated kinase/all kinases.
row,Molecule,phosphorylation of Akt induced by DiTrbL3
1,"O=C(Nc1ccccc1C(=O)NC1CCCCNC1=O)c1cc2ccccc2s1 (stereo not drawn) [ANA-12, reference compound]",the phosphorylation activity decreased; also recorded: suppressed

# Test system: Erk½
# Assay: Western blot of phosphorylated Erk½ in primary hippocampal neurons
# Format: cell-based, mouse
# Settings: ANA-12 100 µM added 30 minutes before 1 nM DiTrbL3; p<0.01
# Description: as §3, §4, §5
row,Molecule,phosphorylation of Erk½ induced by DiTrbL3
1,"O=C(Nc1ccccc1C(=O)NC1CCCCNC1=O)c1cc2ccccc2s1 (stereo not drawn) [ANA-12, reference compound]",the phosphorylation activity decreased; also recorded: suppressed

# Test system: 40 RTKs (receptor tyrosine kinases)
# Assay: Phospho-RTK array evaluation (off-target activity)
# Format: cell-based, mouse
# Settings: ANA-12 100 µM added 30 minutes before DiTrbL3 1 nM
# Description: Comprehensive study of the phosphorylated tyrosine kinase receptor was conducted using a phospho-RTK array in accordance with the manufacturer’s protocol (Proteome Profiler mouse Phospho-RTK Array Kit, ARY014, R&D Systems). The phosphorylation level was evaluated by pixel density and quantified by Image J Software.
row,Molecule,"TrkB phosphorylation signal induced by DiTrbL3, RTK array and densitometric analysis"
1,"O=C(Nc1ccccc1C(=O)NC1CCCCNC1=O)c1cc2ccccc2s1 (stereo not drawn) [ANA-12, reference compound]",reduction in TrkB phosphorylation signal

# Biological target: extracellular domain of hTrkA (Homo sapiens, UniProt P04629)
# Assay: SPR binding kinetics (Biacore T200), hTrkA
# Parameters: the extracellular domain of hTrkA, hTrkC, and hTrkB
# Settings: Homodimer (peptide complex), 1:1 binding model
# Description: as §1, §2
# Sequence of extracellular domain of hTrkA (P04629 33-423 limits assumed): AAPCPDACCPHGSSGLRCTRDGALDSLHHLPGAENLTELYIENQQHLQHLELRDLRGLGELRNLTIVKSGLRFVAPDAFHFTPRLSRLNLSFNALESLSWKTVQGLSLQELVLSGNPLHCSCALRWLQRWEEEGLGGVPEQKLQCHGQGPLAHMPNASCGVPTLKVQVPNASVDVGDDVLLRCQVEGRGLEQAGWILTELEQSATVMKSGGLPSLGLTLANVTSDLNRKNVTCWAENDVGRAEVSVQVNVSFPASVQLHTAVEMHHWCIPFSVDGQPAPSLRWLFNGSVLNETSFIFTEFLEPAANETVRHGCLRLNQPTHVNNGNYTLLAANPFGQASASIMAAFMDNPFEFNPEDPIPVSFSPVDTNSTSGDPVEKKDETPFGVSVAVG
row,Molecule,"binding affinity KD, TrkA"
1,"I: {CH2CO}-YRHNSYEASAFWCGSGSGS[NH(CH2CH2O)6CH2CO][Dap]-NH2 / II: {CH2CO}-YRHNSYEASAFWCGSGSGS[NH(CH2CH2O)6CH2CO] (amide I:21-II:C; thioether I:N-I:13, II:N-II:13) [DiTrbL1]",N.B.

# Biological target: T2, extracellular domain of hTrkB (human, UniProt Q16620 32-430)
# T2 construct: extracellular domain; Immobilised on a Ni2+-treated NTA sensor chip through the His6-tag for SPR; fixed on His pulldown Dynabeads at 200 nM for the RaPID selection; also called human TrkB; TrkB extracellular domain; not shown: His6-tag
# Assay: RaPID affinity selection, 5 rounds, on beads carrying TrkB extracellular domain; sequencing
# Settings: not given
# Description: Next, the peptide-mRNA/cDNA conjugate libraries thus obtained were subjected to affinity selection. First, as control selection, the peptide-mRNA/cDNA conjugate libraries were passed three times through His pulldown Dynabeads (Life Technologies) (each passage for 10 minutes under the condition of 4° C.). The above process is called “pre-clearance” or negative selection and is performed to remove undesired binding to beads. […] The process is called “positive selection”.
# By heating at 95° C. for 5 minutes, the cDNAs were eluted from the beads and a portion of the eluted cDNAs was evaluated by quantitative PCR using Sybr Green I and thermal cycler (LightCycler (Roche)). The remaining portion of the cDNAs was amplified by PCR and used for the transcription of the mRNA library used for affinity selection in the next round.
# One round consisted of preparation of a library, pre-clearance, and positive selection, and the round was performed 5 times. […] The collected cDNAs were amplified by PCR, purified using a column (NucleoSpin (Machery-Nagel)), and sequenced using a high through-put sequencer (MiSeq (Illumina)). Data analysis was performed using a software (CLC Sequence Viewer 7 (Qiagen)).
# T2 sequence (Q16620 32-430): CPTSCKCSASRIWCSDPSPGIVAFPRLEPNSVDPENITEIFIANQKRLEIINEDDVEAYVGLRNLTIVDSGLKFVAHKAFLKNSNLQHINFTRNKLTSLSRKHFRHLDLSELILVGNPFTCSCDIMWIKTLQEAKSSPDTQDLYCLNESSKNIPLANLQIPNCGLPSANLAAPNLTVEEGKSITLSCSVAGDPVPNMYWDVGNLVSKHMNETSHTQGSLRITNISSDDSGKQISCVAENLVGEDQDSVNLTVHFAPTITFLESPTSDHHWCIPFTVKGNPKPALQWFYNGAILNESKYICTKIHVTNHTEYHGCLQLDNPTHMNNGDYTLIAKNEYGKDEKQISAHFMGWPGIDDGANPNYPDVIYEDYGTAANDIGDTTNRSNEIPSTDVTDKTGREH
row,Molecule,binding result
1,"Ac-YRHNSYEASAFWCGSGSGS (thioether (positions not given here); not fully specified (residue 1, bridges), In the selection it stood as a peptide-mRNA/cDNA conjugate joined through a puromycin linker) [SEQ ID NO 1]",binds
2,"Ac-YRHNSYKASAFWCGSGSGS (thioether (positions not given here); not fully specified (residue 1, bridges), In the selection it stood as a peptide-mRNA/cDNA conjugate joined through a puromycin linker) [SEQ ID NO 2]",binds
3,"Ac-YRHSSYEASAFWCGSGSGS (thioether (positions not given here); not fully specified (residue 1, bridges), In the selection it stood as a peptide-mRNA/cDNA conjugate joined through a puromycin linker) [SEQ ID NO 3]",binds
4,"Ac-YRHDSYEASAFWCGSGSGS (thioether (positions not given here); not fully specified (residue 1, bridges), In the selection it stood as a peptide-mRNA/cDNA conjugate joined through a puromycin linker) [SEQ ID NO 4]",binds
5,"Ac-YRHNSYEASTFWCGSGSGS (thioether (positions not given here); not fully specified (residue 1, bridges), In the selection it stood as a peptide-mRNA/cDNA conjugate joined through a puromycin linker) [SEQ ID NO 5]",binds
6,"Ac-YRHNSYEASAFCCGSGSGS (thioether (positions not given here); not fully specified (residue 1, bridges), In the selection it stood as a peptide-mRNA/cDNA conjugate joined through a puromycin linker) [SEQ ID NO 6]",binds
7,"Ac-YRFWQTPRFRLCGSGSGS (thioether (positions not given here); not fully specified (residue 1, bridges), In the selection it stood as a peptide-mRNA/cDNA conjugate joined through a puromycin linker) [SEQ ID NO 10]",binds
8,"Ac-YKYKFWAYIPTNCGSGSGS (thioether (positions not given here); not fully specified (residue 1, bridges), In the selection it stood as a peptide-mRNA/cDNA conjugate joined through a puromycin linker) [SEQ ID NO 11]",binds
9,"Ac-YRIHPWITTYRCGSGSGS (thioether (positions not given here); not fully specified (residue 1, bridges), In the selection it stood as a peptide-mRNA/cDNA conjugate joined through a puromycin linker) [SEQ ID NO 12]",binds
10,"Ac-YRLHQWINTFRCGSGSGS (thioether (positions not given here); not fully specified (residue 1, bridges), In the selection it stood as a peptide-mRNA/cDNA conjugate joined through a puromycin linker) [SEQ ID NO 13]",binds
11,"Ac-YLRPRYKFWCGSGSGS (thioether (positions not given here); not fully specified (residue 1, bridges), In the selection it stood as a peptide-mRNA/cDNA conjugate joined through a puromycin linker) [SEQ ID NO 7]",binds
12,"Ac-YLQPKFKFWCGSGSGS (thioether (positions not given here); not fully specified (residue 1, bridges), In the selection it stood as a peptide-mRNA/cDNA conjugate joined through a puromycin linker) [SEQ ID NO 8]",binds
13,"Ac-YAHEGYKNSAFWCGSGSGS (thioether (positions not given here); not fully specified (residue 1, bridges), In the selection it stood as a peptide-mRNA/cDNA conjugate joined through a puromycin linker) [SEQ ID NO 9]",binds
